Source: patent US20250122267A1

Target: serum TGFβ1 of the treated mice (mouse) (UniProt P04202)
Test: cell-based or functional assay

UniProt P04202, sequence (P04202 279-390 limits assumed): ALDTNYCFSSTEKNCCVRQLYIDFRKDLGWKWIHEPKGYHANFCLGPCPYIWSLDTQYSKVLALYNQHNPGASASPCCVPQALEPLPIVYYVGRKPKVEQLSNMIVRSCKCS

With “sTGFbR2-Fc(igg2Ae), fusion of the mouse TGFbR2 extracellular domain with the mouse igg domain (Fc fusion)” the serum TGFβ1 after administration of the AAV encoding the soluble receptor (FIG. 2, TGFb1 knockdown versus dosage) was < 95%.
